Laboratory results taken from patent publication US20130195871A1 (AbbVie / Abbott, published 2013).

B1: DVD2299 (bispecific antibody)
VH: EVQLVQSGGGLVKPGGSLRLSCAASGFTFSSYAMHWVRQAPGKGLEWVAVISYDGSNKYYADSVKGRFTISRDNSKNTLYLQMNSLRAEDTAVYYCARFSGWPNNYYYYGMDVWGQGTTVTVSSASTKGPEVQLVESGGGLVQPGGSLRLSCAASGFSLTNYGVHWVRQAPGKGLEWLGVGWSGGNTDYNTPFTSRLTINKDNSKNTVYLQMNSLRAEDTAVYYCARALTWYDYEFAYWGQGTLVTVSS
VL: DVVMTQSPLSLPVTPGEPASISCRSSQSLLHSNGFNYVDWYLQKPGQSPHLLIYFGSYRASGVPDRFSGSGSGTDFTLKISRVEAEDVGVYYCMQALQTPPWTFGQGTKVEIRRTVAAPDILLTQSPGTLSLSPGERATLSCRASQSIYTNIHWYQQKPGQAPRLLIKYASESISGIPDRFSGSGSGTDFTLTISRLEPEDFAVYYCQQNLNWPTTFGQGTKLEIK
notes: DVD-Ig, outer AB005 / inner AB400
B2: DVD2303 (bispecific antibody)
VH: EVQLVESGGGLVQPGGSLRLSCAASGFTFTDYTMDWVRQAPGKGLEWVADVNPNSGGSIYNQRFKGRFTLSVDRSKNTLYLQMNSLRAEDTAVYYCARNLGPSFYFDYWGQGTLVTVSSASTKGPEVQLVESGGGLVQPGGSLRLSCAASGFSLTNYGVHWVRQAPGKGLEWLGVGWSGGNTDYNTPFTSRLTINKDNSKNTVYLQMNSLRAEDTAVYYCARALTWYDYEFAYWGQGTLVTVSS
VL: DIQMTQSPSSLSASVGDRVTITCKASQDVSIGVAWYQQKPGKAPKLLIYSASYRYTGVPSRFSGSGSGTDFTLTISSLQPEDFATYYCQQYYIYPYTFGQGTKVEIKRTVAAPDILLTQSPGTLSLSPGERATLSCRASQSIYTNIHWYQQKPGQAPRLLIKYASESISGIPDRFSGSGSGTDFTLTISRLEPEDFAVYYCQQNLNWPTTFGQGTKLEIK
notes: DVD-Ig, outer AB080 / inner AB400
B3: DVD2307 (bispecific antibody)
VH: EVQLVQSGGGLVKPGGSLRLSCAASGFTFSSFAMHWVRQAPGKGLEWISVIDTRGATYYADSVKGRFTISRDNAKNSLYLQMNSLRAEDTAVYYCARLGNFYYGMDVWGQGTTVTVSSASTKGPEVQLVESGGGLVQPGGSLRLSCAASGFSLTNYGVHWVRQAPGKGLEWLGVGWSGGNTDYNTPFTSRLTINKDNSKNTVYLQMNSLRAEDTAVYYCARALTWYDYEFAYWGQGTLVTVSS
VL: EIVLTQSPGTLSVSPGERATLSCRASQSIGSSLHWYQQKPGQAPRLLIKYASQSLSGIPDRFSGSGSGTDFTLTISRLEPEDFAVYYCHQSSRLPHTFGQGTKVEIKRTVAAPDILLTQSPGTLSLSPGERATLSCRASQSIYTNIHWYQQKPGQAPRLLIKYASESISGIPDRFSGSGSGTDFTLTISRLEPEDFAVYYCQQNLNWPTTFGQGTKLEIK
notes: DVD-Ig, outer AB077 / inner AB400
B4: DVD2338 (bispecific antibody)
VH: QVQLQESGPGLVKPSEILSLTCTVSGGSISSHYWSWVRQPPGKGLEWIGYIYYSGSTNYNPSLKSRVTISVDTSKNQFSLNLSSVTAADTAVYYCARIPNYYDRSGYYPGYWYFDLWGRGTLVTVSSASTKGPEVQLVESGGGLVQPGGSLRLSCAASGFSLTNYGVHWVRQAPGKGLEWLGVGWSGGNTDYNTPFTSRLTINKDNSKNTVYLQMNSLRAEDTAVYYCARALTWYDYEFAYWGQGTLVTVSS
VL: QAVLTQPSSLSAPPGASASLTCTLRSGFNVDSYRISWYQQKPGSPPQYLLRYKSDSDKQQGSGVPSRFSGSKDASANAGILLISGLQSEDEADYYCMIWHSSAWVFGGGTKLTVLRQPKAAPDILLTQSPGTLSLSPGERATLSCRASQSIYTNIHWYQQKPGQAPRLLIKYASESISGIPDRFSGSGSGTDFTLTISRLEPEDFAVYYCQQNLNWPTTFGQGTKLEIK
notes: DVD-Ig, outer AB034 / inner AB400
B5: DVD2343 (bispecific antibody)
VH: EVQLVESGGGLVQPGGSLRLSCAASGFTFTDYTMDWVRQAPGKGLEWVADVNPNSGGSIYNQRFKGRFTLSVDRSKNTLYLQMNSLRAEDTAVYYCARNLGPSFYFDYWGQGTLVTVSSASTKGPQVQLQESGPGLVKPSQTLSLTCTVSGYSISSDFAWNWIRQPPGKGLEWMGYISYSGNTRYQPSLKSRITISRDTSKNQFFLKLNSVTAADTATYYCVTAGRGFPYWGQGTLVTVSS
VL: DIQMTQSPSSLSASVGDRVTITCKASQDVSIGVAWYQQKPGKAPKLLIYSASYRYTGVPSRFSGSGSGTDFTLTISSLQPEDFATYYCQQYYIYPYTFGQGTKVEIKRTVAAPDIQMTQSPSSMSVSVGDRVTITCHSSQDINSNIGWLQQKPGKSFKGLIYHGTNLDDGVPSRFSGSGSGTDYTLTISSLQPEDFATYYCVQYAQFPWTFGGGTKLEIK
B6: DVD2319 (bispecific antibody)
VH: EVQLVESGGGLVQPGGSLRLSCAASGFTFSIYSMNWVRQAPGKGLEWVSYISSSSSTIYYADSVKGRFTISRDNAKNSLYLQMNSLRDEDTAVYYCARDRGDFDAFDIWGQGTMVTVSSASTKGPEVQLVQSGGGLVKPGGSLRLSCAASGFTFSSYAMHWVRQAPGKGLEWVAVISYDGSNKYYADSVKGRFTISRDNSKNTLYLQMNSLRAEDTAVYYCARFSGWPNNYYYYGMDVWGQGTTVTVSS
VL: DIQMTQSPSSLSASVGDRVTITCQASQDITNYLNWYQQKPGKAPKLLIYDASNLETGVPSRFSGSGSGTDFTFTISSLQPEDIATYNCQQCENFPITFGQGTRLEIKRTVAAPDVVMTQSPLSLPVTPGEPASISCRSSQSLLHSNGFNYVDWYLQKPGQSPHLLIYFGSYRASGVPDRFSGSGSGTDFTLKISRVEAEDVGVYYCMQALQTPPWTFGQGTKVEIR
notes: DVD-Ig, outer AB063 / inner AB005
B7: DVD2321 (bispecific antibody)
VH: EVQLLESGGGLVQPGGSLRLSCAASGFTFSHYVMAWVRQAPGKGLEWVSSISSSGGWTLYADSVKGRFTISRDNSKNTLYLQMNSLRAEDTAVYYCTRGLKMATIFDYWGQGTLVTVSSASTKGPEVQLVQSGGGLVKPGGSLRLSCAASGFTFSSYAMHWVRQAPGKGLEWVAVISYDGSNKYYADSVKGRFTISRDNSKNTLYLQMNSLRAEDTAVYYCARFSGWPNNYYYYGMDVWGQGTTVTVSS
VL: QSALTQPASVSGSPGQSITISCTGTSSDVGSYNVVSWYQQHPGKAPKLIIYEVSQRPSGVSNRFSGSKSGNTASLTISGLQTEDEADYYCCSYAGSSIFVIFGGGTKVTVLGQPKAAPDVVMTQSPLSLPVTPGEPASISCRSSQSLLHSNGFNYVDWYLQKPGQSPHLLIYFGSYRASGVPDRFSGSGSGTDFTLKISRVEAEDVGVYYCMQALQTPPWTFGQGTKVEIR
notes: DVD-Ig, outer AB116 / inner AB005
B8: DVD2323 (bispecific antibody)
VH: QVQLQQWGAGLLKPSETLSLTCAVYGGSFSGYYWSWIRQPPGKGLEWIGEINHSGSTNYNPSLKSRVTISVETSKNQFSLKLSSVTAADTAVYYCARDKWTWYFDLWGRGTLVTVSSASTKGPEVQLVQSGGGLVKPGGSLRLSCAASGFTFSSYAMHWVRQAPGKGLEWVAVISYDGSNKYYADSVKGRFTISRDNSKNTLYLQMNSLRAEDTAVYYCARFSGWPNNYYYYGMDVWGQGTTVTVSS
VL: DIEMTQSPDSLAVSLGERATINCRSSQSVLYSSSNRNYLAWYQQNPGQPPKLLIYWASTRESGVPDRFSGSGSGTDFTLTISSLQAEDVAVYYCQQYYSTPRTFGQGTKVEIKRTVAAPDVVMTQSPLSLPVTPGEPASISCRSSQSLLHSNGFNYVDWYLQKPGQSPHLLIYFGSYRASGVPDRFSGSGSGTDFTLKISRVEAEDVGVYYCMQALQTPPWTFGQGTKVEIR
notes: DVD-Ig, outer AB062 / inner AB005
B9: DVD2325 (bispecific antibody)
VH: EVQLVQSGGGLVKPGGSLRLSCAASGFTFSSFAMHWVRQAPGKGLEWISVIDTRGATYYADSVKGRFTISRDNAKNSLYLQMNSLRAEDTAVYYCARLGNFYYGMDVWGQGTTVTVSSASTKGPEVQLVQSGGGLVKPGGSLRLSCAASGFTFSSYAMHWVRQAPGKGLEWVAVISYDGSNKYYADSVKGRFTISRDNSKNTLYLQMNSLRAEDTAVYYCARFSGWPNNYYYYGMDVWGQGTTVTVSS
VL: EIVLTQSPGTLSVSPGERATLSCRASQSIGSSLHWYQQKPGQAPRLLIKYASQSLSGIPDRFSGSGSGTDFTLTISRLEPEDFAVYYCHQSSRLPHTFGQGTKVEIKRTVAAPDVVMTQSPLSLPVTPGEPASISCRSSQSLLHSNGFNYVDWYLQKPGQSPHLLIYFGSYRASGVPDRFSGSGSGTDFTLKISRVEAEDVGVYYCMQALQTPPWTFGQGTKVEIR
notes: DVD-Ig, outer AB077 / inner AB005
B10: DVD2327 (bispecific antibody)
VH: EVQLLESGGGLVQPGGSLRLSCTASGFTFSSYAMNWVRQAPGKGLEWVSAISGSGGTTFYADSVKGRFTISRDNSRTTLYLQMNSLRAEDTAVYYCAKDLGWSDSYYYYYGMDVWGQGTTVTVSSASTKGPEVQLVQSGGGLVKPGGSLRLSCAASGFTFSSYAMHWVRQAPGKGLEWVAVISYDGSNKYYADSVKGRFTISRDNSKNTLYLQMNSLRAEDTAVYYCARFSGWPNNYYYYGMDVWGQGTTVTVSS
VL: DIQMTQFPSSLSASVGDRVTITCRASQGIRNDLGWYQQKPGKAPKRLIYAASRLHRGVPSRFSGSGSGTEFTLTISSLQPEDFATYYCLQHNSYPCSFGQGTKLEIKRTVAAPDVVMTQSPLSLPVTPGEPASISCRSSQSLLHSNGFNYVDWYLQKPGQSPHLLIYFGSYRASGVPDRFSGSGSGTDFTLKISRVEAEDVGVYYCMQALQTPPWTFGQGTKVEIR
notes: DVD-Ig, outer AB011 / inner AB005
B11: DVD2333 (bispecific antibody)
VH: EVQLLESGGGLVQPGGSLRLSCAASGFTFSHYVMAWVRQAPGKGLEWVSSISSSGGWTLYADSVKGRFTISRDNSKNTLYLQMNSLRAEDTAVYYCTRGLKMATIFDYWGQGTLVTVSSASTKGPQVQLQESGPGLVKPSEILSLTCTVSGGSISSHYWSWVRQPPGKGLEWIGYIYYSGSTNYNPSLKSRVTISVDTSKNQFSLNLSSVTAADTAVYYCARIPNYYDRSGYYPGYWYFDLWGRGTLVTVSS
VL: QSALTQPASVSGSPGQSITISCTGTSSDVGSYNVVSWYQQHPGKAPKLIIYEVSQRPSGVSNRFSGSKSGNTASLTISGLQTEDEADYYCCSYAGSSIFVIFGGGTKVTVLGQPKAAPQAVLTQPSSLSAPPGASASLTCTLRSGFNVDSYRISWYQQKPGSPPQYLLRYKSDSDKQQGSGVPSRFSGSKDASANAGILLISGLQSEDEADYYCMIWHSSAWVFGGGTKLTVL
notes: DVD-Ig, outer AB116 / inner AB034

Target: T1, EGFR on the cell surface (human, UniProt P00533 25-1210)
T1 construct: whole, on cells
Assay: flow cytometry on cells, 2 ug/mL, C-terminal VD;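 further: cells stained for 30 to 60 min on ice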
Method: Stable cell lines overexpressing a cell-surface antigen of interest or human tumor cell lines were harvested from tissue culture flasks and resuspended in phosphate buffered saline (PBS) containing 5% fetal bovine serum (PBS/FBS). Prior to staining, human tumor cells were incubated on ice with (100 μl) human IgG at 5 μg/ml in PBS/FCS. 1-5×10⁵ cells were incubated with antibody or DVD-Ig (2 μg/mL) in PBS/FBS for 30-60 minutes on ice. […] After 30 minutes incubation on ice, cells were washed twice and resuspended in PBS/FBS. Fluorescence was measured using a Becton Dickinson FACSCalibur (Becton Dickinson, San Jose, Calif.).
The geometric mean is the n root of the multiplication product of n fluorescent signals (a1×a2×a3 . . . an). With log-transformed data the geometric mean is used to normalize the weighting of the data distribution.

In order of falling “GEO MEAN” value:
1. B1  320
2. B3  266
3. B4  252
4. B2  185
5. B5  6.47

Target: T2, Recombinant Human MSP Receptor ECD-His tag (human, UniProt Q04912 25-957)
T2 construct: extracellular domain; bought reagent; also called RON
Assay: SPR (Biacore), C-terminal VD;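 further: surface plasmon resonance with DVD-Ig proteins captured on an anti-IgG chip and recombinant antigen flowed over in HBS-EP buffer, Langmuir global fit, KD taken as koff/kon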
Method: (§1) The BIACORE assay (Biacore, Inc, Piscataway, N.J.) determined the affinity of antibodies or DVD-Ig proteins with kinetic measurements of on-rate and off-rate constants. Binding of antibodies or DVD-Ig proteins to a target antigen (for example, a purified recombinant target antigen) was determined by surface plasmon resonance-based measurements with a Biacore® 1000 or 3000 instrument (Biacore AB, Uppsala. Sweden) using running HBS-EP (10 mM HEPES [pH 7.4], 150 mM NaCl, 3 mM EDTA, and 0.005% surfactant P20) at 25° C. […] For example, approximately 5000 RU of goat anti-mouse IgG, (Fcγ), fragment specific polyclonal antibody (Pierce Biotechnology Inc, Rockford, Ill.) diluted in 10 mM sodium acetate (pH 4.5) was directly immobilized across a CM5 research grade biosensor chip using a standard amine coupling kit according to manufacturer's instructions and procedures at 25 μg/ml. Unreacted moieties on the biosensor surface were blocked with ethanolamine. Modified carboxymethyl dextran surface in flowcell 2 and 4 was used as a reaction surface. Unmodified carboxymethyl dextran without goat anti-mouse IgG in flow cell 1 and 3 was used as the reference surface. For kinetic analysis, rate equations derived from the 1:1 Langmuir binding model were fitted simultaneously to association and dissociation phases of all eight injections (using global fit analysis) with the use of Biaevaluation 4.0.1 software. Purified antibodies or DVD-Ig proteins were diluted in HEPES-buffered saline for capture across goat anti-mouse IgG specific reaction surfaces. Antibodies or DVD-Ig proteins to be captured as a ligand (25 μg/ml) were injected over reaction matrices at a flow rate of 5 μl/minute. The association and dissociation rate constants, kₒₙ (M⁻¹s⁻¹) and koff (s⁻¹) were determined under a continuous flow rate of 25 μl/minute. Rate constants were derived by making kinetic binding measurements at different antigen concentrations ranging from 10-200 nM. The equilibrium dissociation constant (M) of the reaction between antibodies or DVD-Ig proteins and the target antigen was then calculated from the kinetic rate constants by the following formula: KD=koff/kₒₙ. Binding was recorded as a function of time and kinetic rate constants were calculated.

B6: no binding (tested: 10-200 nM).
B7: no binding (tested: 10-200 nM).
B8: no binding (tested: 10-200 nM).
B9: no binding (tested: 10-200 nM).
B10: no binding (tested: 10-200 nM).
B11: no binding (tested: 10-200 nM).

Target: T3, Recombinant Human ErbB3/FC Chimera-His tag (human, UniProt P21860 20-643)
T3 construct: bought reagent
Assay: SPR (Biacore), N-terminal VD;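 further: capture of antibodies or DVD-Ig proteins on an anti-mouse IgG chip surface, recombinant antigen injected at 10–200 nM in HBS-EP running buffer at 25 °C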
Method: as §1

In order of falling Kd:
1. B7  12 nM
2. B8  7.7 nM
3. B6  5.4 nM

In order of falling koff:
1. B6  0.0017 s⁻¹
2. B8  0.00046 s⁻¹
3. B7  0.00031 s⁻¹

In order of falling kon:
1. B6  310000 M⁻¹ s⁻¹
2. B8  60000 M⁻¹ s⁻¹
3. B7  25000 M⁻¹ s⁻¹

B11: no binding (tested: 10-200 nM).

Target: T4, Recombinant Human IGF1R (human, UniProt P08069 31-932)
T4 construct: bought reagent
Assay: SPR (Biacore), N-terminal VD;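 further: capture of antibodies or DVD-Ig proteins on an anti-mouse IgG chip surface, recombinant antigen injected at 10–200 nM in HBS-EP running buffer at 25 °C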
Method: as §1

In order of falling Kd:
1. B10  1.5 nM
2. B9  0.11 nM

In order of falling koff:
1. B10  7e-05 s⁻¹
2. B9  6.6e-06 s⁻¹

In order of rising kon:
1. B10  46000 M⁻¹ s⁻¹
2. B9  60000 M⁻¹ s⁻¹
